The values that follow come from US20200157146A1.

This experiment addresses HLA-A2 (human). The experiment in a line: T2 cells without peptide stained with MA2.1 mAb, flow cytometry (baseline of the stabilization assay). (Flow cytometry measures light scatter and fluorescence of single cells or particles in a stream.)

Consider MA2.1 mAb (antibody), for which the mean channel fluorescence is 90.
